# US10202584B2, “Red-shifted luciferase-luciferin pairs for enhanced bioluminescence” (The Regents of the University of California, priority 2016, dated 2019)
# Assays:
# Assay in all cases: purified protein, by the assay type
# Details in all cases: other: apparent, 100 pM enzyme, substrate 0.78 to 50 μM, assay buffer pH 6.0, mean ± s.d., n = 3, 37.0 °C
# [1] = tested on: O=c1c(Cc2ccccc2)nc2c(-c3ccccc3)[nH]c(-c3ccccc3)cn1-2
# Procedure: (§1) The final concentrations of all enzymes were 100 pM. Substrate concentrations varied from 0.78 to 50 μM, and peak bioluminescence intensities at individual substrate concentrations were used to fit the Michaelis-Menten equation. Data are shown as mean and s.d. of three independent experiments.
# (§2) DH10B cells containing corresponding pBAD plasmids were grown in 5 mL LB starter cultures containing ampicillin (100 μg/mL) at 37° C. and 250 rpm overnight. Each saturated overnight culture was diluted 100-fold into 2YT media containing the appropriate antibiotics and grown under the same conditions. When OD600 reached 0.7-0.9, the expression culture was induced with L-arabinose (0.2%, w/v %) and incubated at room temperature with shaking at 250 rpm for another 16 h. Cells were harvested by centrifugation at 4700 rpm for 15 min and lysed by sonication. The resulting cell lysate was clarified by centrifugation at 18,000 rpm for 30 min at 4° C. The supernatant was incubated with Ni-NTA agarose beads (Pierce) at 4° C. for 2 h. Agarose beads loaded to a plastic column were sequentially washed with 10 mL of wash buffer 1 (pH 8.0, 50 mM Tris HCl, 20 mM Imidazole, 300 mM NaCl, 1 mM DTT) and 10 mL of wash buffer 2 (pH 8.0, 50 mM Tris HCl, 50 mM Imidazole, 300 mM NaCl, 1 mM DTT), followed by elution with elution buffer (pH 8.0, 50 mM Tris HCl, 300 mM Imidazole, 300 mM NaCl, 1 mM DTT). Proteins were buffer-exchanged into Tris-HCl (50 mM, pH 7.4) containing 1 mM DTT using Thermo Scientific Snakeskin dialysis tubing, and next concentrated using 3-kDa Amicon Ultra Centrifugal Filters (EMD Millipore). Protein concentrations were determined using the Pierce Coomassie Bradford Protein Assay Kit (Thermo Fisher). For storage, glycerol was added to a final concentration of 50% (v/v) and the resultant mixtures were kept at −20° C.
# (§3) A Synergy Mx Microplate Reader (BioTek) was used for all in vitro bioluminescence characterizations. For kinetics measurements, no emission filter or monochromator was used. […]
# [2] = tested on: O=c1c(Cc2ccccc2)nc2c([Se]c3ccccc3)[nH]c(-c3ccccc3)cn1-2
# Procedure: as §1, §2, §3
# [3] = tested on: O=c1c(Cc2ccco2)nc2c(Cc3ccccc3)[nH]c(-c3ccccc3)cn1-2
# Procedure: as §1, §2, §3
substance,measurement,setting,value
"NanoLuc luciferase (Oplophorus gracihrostris-derived, parent, SEQ ID NO: 1) (Oplophorus gracilirostris; A31E/A60N/A81I/F95D/I117V/K70R/L54V/L99Q/M102K/N193R/P142E/Q151K/Q38R/Q45L/V71I/Y165I)",Km,[1],5.3 ± 0.2 µM
same,Km,[2],17.8 ± 1.0 µM
same,Km,[3],11.5 ± 0.6 µM
